Measurements from patent US20090075921A1, “Bone/joint disease sensitivity gene and use thereof” (Riken, priority 2004, published 2009).

How the values were obtained:
ATDC5 cells = experiment: MTT assay of ATDC5 cell growth; assay type: cell-based, mouse; details: added alone, medium 1-2
Description: ATDC5 was inoculated to a 12-well plate at 0.4×10^5 cells/well, and cultured using the medium 1-2 described in Example 19 for 24 hours, after which asporin and bFGF were added, and MTT assay was performed over time as described below. Specifically, the medium was removed by suction, the 1 mg/ml MTT reagent (DOJINDO) dissolved in DMEM/F12 was added at 1 ml/well, and the plate was incubated in a CO2 incubator for 1 hour. The supernatant was removed by suction, a Lysis reagent (86% isopropanol, 40 mM HCl, 1% SDS) was added to the plate at 0.2 ml/well, and extraction was performed at room temperature for 5 minutes. This extract was transferred to a 96-well plate, and OD550 was measured using a plate reader.

TGF-β1 = TGF-β1 (Homo sapiens, UniProt P01137); experiment: Binding assay of asporin and TGF-β by pull-down assay method; details: S-Protein agarose precipitate, Western blotting
Chain of TGF-β1 (P01137 279-390 limits assumed, species assumed): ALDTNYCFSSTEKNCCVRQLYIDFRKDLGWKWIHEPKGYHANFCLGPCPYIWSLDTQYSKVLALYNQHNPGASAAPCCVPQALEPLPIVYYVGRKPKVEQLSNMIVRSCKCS
Description: With the pET29b-ASP13 and pET29b-ASP14 thus prepared as the templates, S-tagged human asporin D13 and D14 were prepared by performing a reaction in the presence of Transcend™ Biotin-Lysyl-tRNA using TNT Quick Coupled Transcription/Translation Systems (Promega). A reaction mixture comprising S-tagged human asporin D13 or D14 (10 μl) and TGF-β1 (0.1 μg) were mixed in buffer A (50 mM Tris (pH 7.5), 150 mM NaCl, 1% Triton X-100, complete protease inhibitor cocktail tablets (Roche)) at 4° C. for 1 hour, S-Protein agarose (Novagen, 12.5 μl) was added, and the mixture was further incubated at room temperature for 30 minutes. The precipitated resin was washed with buffer A five times, after which SDS-PAGE was performed under reducing conditions. S-tagged human asporin in the precipitate was detected by Western blotting using streptavidin-HRP (R&D Systems), and TGF-β1 was detected by Western blotting using biotinylated anti-TGF-β1 antibody (Genzyme). As a result of an examination of the binding of human asporin and TGF-β by the method described above, a band of TGF-β1 was detected in the precipitate comprising S-tagged human asporin D13 or D14 (FIG. 17).
Using the recombinant mouse asporin purified by the method described in Example 31, its capability of binding with TGF-β1 was examined by the method described in Example 22 (pull-down assay method); as a result, it was confirmed that TGF-β1 was detected in the precipitate of purified mouse asporin (FIG. 26).

type II collagen = experiment: Binding assay of asporin and collagen (type II); details: 37° C., 5 hours, precipitate, Western blotting
Chain of type II collagen (P02458 182-1241 limits assumed): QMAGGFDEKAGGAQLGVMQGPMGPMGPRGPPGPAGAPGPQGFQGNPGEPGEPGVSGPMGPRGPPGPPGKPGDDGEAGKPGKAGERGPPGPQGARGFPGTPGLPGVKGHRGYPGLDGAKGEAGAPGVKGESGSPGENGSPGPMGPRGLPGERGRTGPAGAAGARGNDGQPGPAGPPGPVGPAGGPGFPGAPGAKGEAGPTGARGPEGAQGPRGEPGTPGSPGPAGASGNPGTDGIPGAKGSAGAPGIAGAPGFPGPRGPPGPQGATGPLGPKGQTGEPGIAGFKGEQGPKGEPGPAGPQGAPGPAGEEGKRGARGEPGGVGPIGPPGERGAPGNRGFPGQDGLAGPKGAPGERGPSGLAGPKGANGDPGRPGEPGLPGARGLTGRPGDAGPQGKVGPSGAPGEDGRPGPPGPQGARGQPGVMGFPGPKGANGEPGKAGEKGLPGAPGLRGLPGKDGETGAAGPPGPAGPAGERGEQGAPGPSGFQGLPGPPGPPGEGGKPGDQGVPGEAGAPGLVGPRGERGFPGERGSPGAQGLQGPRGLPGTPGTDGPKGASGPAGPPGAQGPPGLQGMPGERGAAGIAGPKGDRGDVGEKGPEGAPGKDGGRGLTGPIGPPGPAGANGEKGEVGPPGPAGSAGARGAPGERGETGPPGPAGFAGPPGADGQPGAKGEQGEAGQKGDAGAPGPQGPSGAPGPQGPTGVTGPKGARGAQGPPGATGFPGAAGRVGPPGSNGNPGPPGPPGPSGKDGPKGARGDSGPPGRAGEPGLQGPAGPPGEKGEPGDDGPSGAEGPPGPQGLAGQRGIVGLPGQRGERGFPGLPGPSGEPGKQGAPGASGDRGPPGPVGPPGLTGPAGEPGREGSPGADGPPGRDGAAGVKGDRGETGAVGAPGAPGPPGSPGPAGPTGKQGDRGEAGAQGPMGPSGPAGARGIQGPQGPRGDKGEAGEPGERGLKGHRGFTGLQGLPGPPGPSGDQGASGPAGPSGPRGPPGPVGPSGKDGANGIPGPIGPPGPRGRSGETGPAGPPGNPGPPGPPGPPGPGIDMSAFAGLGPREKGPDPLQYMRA
Description: (§1) A binding assay of asporin and collagen was performed by the method described below. As a collagen an acid-soluble type II collagen solution (KOKEN, 3 mg/ml) and an acid-soluble type I collagen solution (1-C: Nitta Gelatin Inc., 3 mg/ml) were used. A reaction mixture comprising 5 μl of an acid-soluble collagen solution (3 mg/ml), 5 μl of an S-tagged human asporin reaction mixture prepared by the method described in Example, and 90 μl of PBS, was prepared, and incubated at 37° C. for 5 hours. This reaction mixture was centrifuged (10,000 rpm, 5 minutes, 4° C.), after which the precipitate was washed with PBS three times. The washed precipitate was dissolved in 20 μl of a sample buffer (comprising 1 μl of 2-mercaptoethanol), after which SDS-PAGE was performed, and Western blotting was performed using streptavidin-HRP. As a result, S-tagged human asporin D13 and D14 bound to both type II collagen and type I collagen (FIG. 21a).

type I collagen = biological target: T1, type I collagen (Homo sapiens, UniProt P02452+P08123); experiment: Binding assay of asporin and collagen (type I); details: 37° C., 5 hours, precipitate, Western blotting
T1 construct: purchased Nitta Gelatin Inc. 1-C
T1 sequence (P02452 162-1218 limits assumed): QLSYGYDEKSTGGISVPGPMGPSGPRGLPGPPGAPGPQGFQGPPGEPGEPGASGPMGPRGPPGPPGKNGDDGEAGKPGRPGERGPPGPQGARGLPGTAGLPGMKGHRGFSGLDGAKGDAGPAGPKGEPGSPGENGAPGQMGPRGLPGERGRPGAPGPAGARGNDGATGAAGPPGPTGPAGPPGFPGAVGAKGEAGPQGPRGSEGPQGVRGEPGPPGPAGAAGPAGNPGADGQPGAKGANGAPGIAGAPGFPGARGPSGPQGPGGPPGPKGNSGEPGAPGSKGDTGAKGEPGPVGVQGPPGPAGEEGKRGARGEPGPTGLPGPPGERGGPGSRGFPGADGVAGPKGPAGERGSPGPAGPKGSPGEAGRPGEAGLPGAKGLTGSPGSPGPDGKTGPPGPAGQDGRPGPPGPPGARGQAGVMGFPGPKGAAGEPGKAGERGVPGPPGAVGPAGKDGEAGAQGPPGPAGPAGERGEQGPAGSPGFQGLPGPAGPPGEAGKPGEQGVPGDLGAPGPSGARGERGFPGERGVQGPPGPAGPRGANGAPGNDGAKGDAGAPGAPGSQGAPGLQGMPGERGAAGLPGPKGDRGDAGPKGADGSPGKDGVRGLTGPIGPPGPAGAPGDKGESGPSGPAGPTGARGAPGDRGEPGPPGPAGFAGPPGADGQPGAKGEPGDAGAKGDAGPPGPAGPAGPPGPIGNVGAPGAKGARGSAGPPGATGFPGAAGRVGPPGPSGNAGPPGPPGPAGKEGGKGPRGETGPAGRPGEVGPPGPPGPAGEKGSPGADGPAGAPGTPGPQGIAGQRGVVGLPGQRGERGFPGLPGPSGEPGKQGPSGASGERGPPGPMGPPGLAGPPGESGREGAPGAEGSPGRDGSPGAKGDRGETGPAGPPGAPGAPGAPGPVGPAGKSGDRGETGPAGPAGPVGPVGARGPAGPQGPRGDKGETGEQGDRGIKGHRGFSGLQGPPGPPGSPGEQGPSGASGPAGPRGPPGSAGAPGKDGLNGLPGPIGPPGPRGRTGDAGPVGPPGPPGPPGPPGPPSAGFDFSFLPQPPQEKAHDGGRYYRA
T1 sequence (P08123 80-1119 limits assumed): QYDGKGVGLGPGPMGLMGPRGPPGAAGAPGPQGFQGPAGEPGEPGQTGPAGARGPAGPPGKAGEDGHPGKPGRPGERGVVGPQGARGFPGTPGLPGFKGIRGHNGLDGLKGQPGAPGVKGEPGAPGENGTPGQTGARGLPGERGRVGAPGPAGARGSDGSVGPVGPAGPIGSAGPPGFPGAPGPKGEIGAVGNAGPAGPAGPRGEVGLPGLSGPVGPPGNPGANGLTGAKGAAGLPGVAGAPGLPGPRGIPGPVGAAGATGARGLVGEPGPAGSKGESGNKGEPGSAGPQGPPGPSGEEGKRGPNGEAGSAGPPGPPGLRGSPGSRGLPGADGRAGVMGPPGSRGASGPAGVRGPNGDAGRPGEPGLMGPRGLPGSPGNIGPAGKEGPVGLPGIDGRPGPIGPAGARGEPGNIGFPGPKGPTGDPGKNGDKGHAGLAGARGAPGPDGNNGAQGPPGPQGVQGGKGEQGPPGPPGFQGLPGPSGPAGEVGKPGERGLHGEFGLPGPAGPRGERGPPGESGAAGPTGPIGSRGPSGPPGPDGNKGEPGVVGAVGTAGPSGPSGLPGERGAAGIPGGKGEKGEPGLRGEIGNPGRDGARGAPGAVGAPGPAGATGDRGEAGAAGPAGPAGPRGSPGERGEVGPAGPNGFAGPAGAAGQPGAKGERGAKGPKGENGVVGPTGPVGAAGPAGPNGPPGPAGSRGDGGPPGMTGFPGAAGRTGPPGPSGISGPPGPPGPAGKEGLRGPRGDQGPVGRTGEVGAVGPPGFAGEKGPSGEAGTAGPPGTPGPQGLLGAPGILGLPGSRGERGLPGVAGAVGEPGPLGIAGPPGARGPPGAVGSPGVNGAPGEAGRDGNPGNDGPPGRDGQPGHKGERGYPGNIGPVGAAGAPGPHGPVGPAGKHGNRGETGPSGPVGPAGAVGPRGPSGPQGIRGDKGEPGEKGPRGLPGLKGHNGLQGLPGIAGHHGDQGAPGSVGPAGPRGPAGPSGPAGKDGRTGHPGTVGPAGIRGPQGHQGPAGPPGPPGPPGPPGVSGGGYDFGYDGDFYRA
Description: as §1

[1] = test system: ATDC5 cell lines that transiently express human asporin; experiment: TGF-β1-stimulated aggrecan and type II collagen gene expression in ATDC5 transiently expressing human asporin; assay type: cell-based, mouse; details: transient expression
Description: ATDC5 cells were inoculated to a 12-well plate at 0.5×10^5 cells/well, and cultured in a medium 1-2 (DMEM/F12 medium containing 5% FBS, ITS (Sigma), penicillin (100 U/ml) and streptomycin (100 μg/ml)). 24 hours later, pcDNA3.1-ASP13 or pcDNA3.1-ASP14 were introduced using FuGENE-6 (Roche), and the cells were cultured for 24 hours. Next, the medium was exchanged with a medium 1-2 containing 0.2% FBS, and the cells were cultured for 12 hours, after which TGF-β1 (10 ng/ml) was added, and the cells were further cultured for 18 hours, after which total RNA extraction, purification, cDNA synthesis, and real-time PCR were performed in the same manner as Example 18. As a result, the elevation of the TGF-β1-stimulated expression levels of the aggrecan and type II collagen genes was suppressed in the ATDC5 cells allowed to transiently express human asporin D13 or D14 compared to mock (FIG. 14).
First, the expression level of the aggrecan gene elevated by TGF-β1 stimulation in mock is written as (AM), and the expression level of the type II collagen gene at the same time is written as (CM). Next, the TGF-β1-stimulated aggrecan gene expression level suppressed by the forced expression of asporin D13 is written as (A13), and the type II collagen gene expression level at the same time is written as (C13). […] Thus, the suppression rate of the TGF-β1-stimulated aggrecan gene expression in the asporin D13 expressing line can be expressed as (A13)/(AM), and the suppression rate of the type II collagen gene expression as (C13)/(CM). Likewise, the suppression rate of the TGF-β1-stimulated aggrecan gene expression in the asporin D14 expressing line can be expressed as (A14)/(AM), and the suppression rate of the type II collagen gene expression as (C14)/(CM). Furthermore, by making a correction by dividing these values by the human asporin mRNA content obtained with TGF-β1 stimulation, the suppression rate of the aggrecan and type II collagen gene expression per human asporin mRNA content were calculated. […]

Molecule	binding to TGF-β1 (pull-down) (TGF-β1)	binding to type II collagen (type II collagen)	binding to type I collagen (type I collagen)	growth of ATDC5 cells (MTT, OD550) (ATDC5 cells)	suppressive action on the TGF-β1-stimulated expression of COL2A1 compared with D14 [1]
bFGF: growth factor added to ATDC5 cells and coated on microplate [reference compound]				suppressed the growth of ATDC5 cells concentration-dependently	
D16: asporin having D-repeat number of 16, transiently expressed (protein) AKPFFSPSHIALKNMMLKDMEDTDDDDDDDDDDDDDDEDNSLFPTREPRSHFFPFDLFPMCPFGCQCYSRVVHCSDLGLTSVPTNIPFDTRMLDLQNNKIKEIKENDFKGLTSLYGLILNNNKLTKIHPKAFLTTKKLRRLYLSHNQLSEIPLNLPKSLAELRIHENKVKKIQKDTFKGMNALHVLEMSANPLDNNGIEPGAFEGVTVFHIRIAEAKLTSVPKGLPPTLLELHLDYNKISTVELEDFKRYKELQRLGLGNNKITDIENGSLANIPRVREIHLENNKLKKIPSGLPELKYLQIIFLHSNSIARVGVNDFCPTVPKMKKSLYSAISLFNNPVKYWEMQPATFRCVLSRMSVQLGNFGM					significantly weaker than that of D14
D17: asporin having D-repeat number of 17, transiently expressed (protein) AKPFFSPSHIALKNMMLKDMEDTDDDDDDDDDDDDDDEDNSLFPTREPRSHFFPFDLFPMCPFGCQCYSRVVHCSDLGLTSVPTNIPFDTRMLDLQNNKIKEIKENDFKGLTSLYGLILNNNKLTKIHPKAFLTTKKLRRLYLSHNQLSEIPLNLPKSLAELRIHENKVKKIQKDTFKGMNALHVLEMSANPLDNNGIEPGAFEGVTVFHIRIAEAKLTSVPKGLPPTLLELHLDYNKISTVELEDFKRYKELQRLGLGNNKITDIENGSLANIPRVREIHLENNKLKKIPSGLPELKYLQIIFLHSNSIARVGVNDFCPTVPKMKKSLYSAISLFNNPVKYWEMQPATFRCVLSRMSVQLGNFGM					significantly weaker than that of D14

Now from value to molecule, other results behind:

binding to TGF-β1 (pull-down) (TGF-β1)	binding to type II collagen (type II collagen)	binding to type I collagen (type I collagen)	Molecule	growth of ATDC5 cells (MTT, OD550) (ATDC5 cells)	suppressive action on the TGF-β1-stimulated expression of COL2A1 compared with D14 [1]
bound to TGF-β1 in vitro	bound	bound	S-tagged human asporin D13: mature S-tagged human asporin D13 synthesized cell-free from pET29b-ASP13, lysines biotinylated (protein, left off: small tags and cut ends, mature S-tagged human asporin D13 synthesized cell-free from pET29b-ASP13, lysines biotinylated) DMEDTDDDDDDDDDDDDDEDNSLFPTREPRSHFFPFDLFPMCPFGCQCYSRVVHCSDLGLTSVPTNIPFDTRMLDLQNNKIKEIKENDFKGLTSLYGLILNNNKLTKIHPKAFLTTKKLRRLYLSHNQLSEIPLNLPKSLAELRIHENKVKKIQKDTFKGMNALHVLEMSANPLDNNGIEPGAFEGVTVFHIRIAEAKLTSVPKGLPPTLLELHLDYNKISTVELEDFKRYKELQRLGLGNNKITDIENGSLANIPRVREIHLENNKLKKIPSGLPELKYLQIIFLHSNSIARVGVNDFCPTVPKMKKSLYSAISLFNNPVKYWEMQPATFRCVLSRMSVQLGNFGM		
bound to TGF-β1 in vitro	bound	bound	S-tagged human asporin D14: mature S-tagged human asporin D14 synthesized cell-free from pET29b-ASP14, lysines biotinylated (protein, left off: small tags and cut ends, mature S-tagged human asporin D14 synthesized cell-free from pET29b-ASP14, lysines biotinylated) DMEDTDDDDDDDDDDDDDDEDNSLFPTREPRSHFFPFDLFPMCPFGCQCYSRVVHCSDLGLTSVPTNIPFDTRMLDLQNNKIKEIKENDFKGLTSLYGLILNNNKLTKIHPKAFLTTKKLRRLYLSHNQLSEIPLNLPKSLAELRIHENKVKKIQKDTFKGMNALHVLEMSANPLDNNGIEPGAFEGVTVFHIRIAEAKLTSVPKGLPPTLLELHLDYNKISTVELEDFKRYKELQRLGLGNNKITDIENGSLANIPRVREIHLENNKLKKIPSGLPELKYLQIIFLHSNSIARVGVNDFCPTVPKMKKSLYSAISLFNNPVKYWEMQPATFRCVLSRMSVQLGNFGM		
	did not bind	did not bind	biglycan: SLRP family proteoglycan used as the negative control for collagen binding (protein, UniProt P21810 38-368, looked up) Biglycan: DEEASGADTSGVLDPDSVTPTYSAMCPFGCHCHLRVVQCSDLGLKSVPKEISPDTTLLDLQNNDISELRKDDFKGLQHLYALVLVNNKISKIHEKAFSPLRKLQKLYISKNHLVEIPPNLPSSLVELRIHDNRIRKVPKGVFSGLRNMNCIEMGGNPLENSGFEPGAFDGLKLNYLRISEAKLTGIPKDLPETLNELHLDHNKIQAIELEDLLRYSKLYRLGLGHNQIRMIENGSLSFLPTLRELHLDNNKLARVPSGLPDLKLLQVVYLHSNNITKVGVNDFCPMGFGVKRAYYNGISLFNNPVPYWEVQPATFRCVTDRLAIQFGNYKK		
